Target: murine protein S (mouse) (UniProt Q08761)
Test: cell-based or functional assay

Sequence of UniProt Q08761 (Q08761 42-675 limits assumed): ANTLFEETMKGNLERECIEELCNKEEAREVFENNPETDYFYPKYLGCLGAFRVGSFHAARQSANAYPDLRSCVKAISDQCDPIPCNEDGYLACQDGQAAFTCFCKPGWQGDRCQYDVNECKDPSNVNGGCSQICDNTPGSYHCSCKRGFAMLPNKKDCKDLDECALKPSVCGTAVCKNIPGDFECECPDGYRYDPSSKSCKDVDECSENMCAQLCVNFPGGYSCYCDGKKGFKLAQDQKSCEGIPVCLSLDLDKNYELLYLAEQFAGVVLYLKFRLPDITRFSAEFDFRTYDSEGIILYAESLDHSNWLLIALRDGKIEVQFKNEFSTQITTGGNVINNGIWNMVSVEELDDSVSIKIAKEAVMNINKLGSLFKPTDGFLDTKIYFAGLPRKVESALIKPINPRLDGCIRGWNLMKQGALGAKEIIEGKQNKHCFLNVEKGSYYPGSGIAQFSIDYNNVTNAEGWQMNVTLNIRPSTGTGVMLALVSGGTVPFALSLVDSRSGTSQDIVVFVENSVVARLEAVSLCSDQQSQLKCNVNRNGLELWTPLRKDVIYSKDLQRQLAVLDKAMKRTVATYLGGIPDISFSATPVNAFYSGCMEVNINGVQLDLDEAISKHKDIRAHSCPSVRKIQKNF

reduction of ETP in Ca2+ ionophore-activated PRP of WT mice at 8 nM APC | Substance
30% | mutated recombinant mouse APC (rmAPC L38D) (from UniProt P33587 42-460)
90% | wild type recombinant mouse APC (wt-rmAPC) (from UniProt P33587 42-460)

Source: patent publication US11723913
